In PMC10718521, “Complexity of αvβ6-integrin targeting RGD peptide trimers: emergence of non-specific binding by synergistic interaction” (RSC Medicinal Chemistry, 2023):

System: H2009 bearing SCID mice
Conditions: mouse, in vivo
Method: Fig. 3 Positron emission tomography (PET) of severe combined immunodeficient (SCID) mice bearing subcutaneous H2009 (human lung adenocarcinoma) xenografts on the right shoulder. Dynamic scans for determination of biokinetics (a and b) were recorded in list mode and reconstructed in multiple frames with increasing time spans. Static images (c and d) were recorded over 20 min, 75 min after tracer administration, and reconstructed as single frames using the OSEM3D algorithm. […]
Unless otherwise noted, the materials and the instrumentation used (analytical and preparative HPLC, ESI-MS, gamma counter, centrifuge), and the experimental procedures (^68Ga radiolabeling and radio-TLC for quality control, determination of log D7.4, cultivation of H2009 human lung adenocarcinoma cells, generation of tumor xenografts in CB17 SCID mice, small-animal PET, and biodistribution) were described before.[19] […] The affinities of the pentynoic amide functionalized peptides were determined employing a well-established ELISA protocol on immobilized integrins.[36] […]

## CC(C)C[C@@H]1NC(=O)[C@H](CC(=O)O)NC(=O)CNC(=O)[C@H](CCCNC(=N)N)NC(=O)[C@H](Cc2ccc(O)cc2)NC(=O)[C@H](CCCCNC(=O)CCc2cn(CCCNC(=O)CCP(=O)(O)CN3CCN(CP(=O)(O)CCC(=O)NCCCn4cc(CCC(=O)NCCCC[C@H]5C(=O)N[C@@H](Cc6ccc(O)cc6)C(=O)N[C@@H](CCCNC(=N)N)C(=O)NCC(=O)N[C@@H](CC(=O)O)C(=O)N[C@@H](CC(C)C)C(=O)N[C@@H](C)C(=O)N[C@@H](Cc6ccc(O)cc6)C(=O)N6CCC[C@@H]6C(=O)N5C)nn4)CCN(CP(=O)(O)CCC(=O)NCCCn4cc(CCC(=O)NCCCC[C@H]5C(=O)N[C@@H](Cc6ccc(O)cc6)C(=O)N[C@@H](CCCNC(=N)N)C(=O)NCC(=O)N[C@@H](CC(=O)O)C(=O)N[C@@H](CC(C)C)C(=O)N[C@@H](C)C(=O)N[C@@H](Cc6ccc(O)cc6)C(=O)N6CCC[C@@H]6C(=O)N5C)nn4)CC3)nn2)N(C)C(=O)[C@H]2CCCN2C(=O)[C@H](Cc2ccc(O)cc2)NC(=O)[C@H](C)NC1=O [Y6]
  Kinetic data Blood: 13.14 ± 1.99
